Laboratory results: paper PMC4358337, “How lamina-associated polypeptide 1 (LAP1) activates Torsin” (eLife, 2014)

T1: human TorsinA(E171Q) (aa51-322) (human, UniProt O14656 51-322, E171Q)
T1 construct: human TorsinA, aa51-322 as printed; Captured by its tag on nickel resin; the nickel eluate was used directly for electron microscopy; Whether the tag was removed before the analytical gel filtration and the precipitation assay is not clearly told; not shown: 6xHis-7xArg, N-terminal, kept
T1 sequence (looked up): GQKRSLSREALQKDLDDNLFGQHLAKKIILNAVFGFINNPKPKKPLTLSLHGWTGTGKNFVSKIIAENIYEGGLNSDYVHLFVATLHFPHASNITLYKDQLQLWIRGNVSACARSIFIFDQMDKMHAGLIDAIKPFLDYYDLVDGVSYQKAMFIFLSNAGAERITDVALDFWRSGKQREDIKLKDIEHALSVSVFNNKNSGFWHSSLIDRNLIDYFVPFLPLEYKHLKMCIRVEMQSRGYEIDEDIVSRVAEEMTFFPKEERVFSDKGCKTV


Key:
Settings in all cases: both partners purified
[1] = molecular target: T1, human TorsinA(E171Q) (aa51-322); experiment: SEC; analytical gel filtration of the co-purified complexes, Superdex 200 10/300, 10 mM HEPES/NaOH pH 8.0, 150 mM NaCl, 10 mM MgCl2, 0.5 mM ATP; peak fractions by SDS-PAGE
[2] = molecular target: T2, luminal domain of human LAP1 (aa356-583) (human, UniProt Q5JTV8); experiment: crystal structure; LAP1-VHH-BS1 complex formed with twofold molar excess of VHH-BS1, SEC purified; crystals in 20% PEG 3350, 100 mM Bis-Tris pH 5.5, 200 mM ammonium sulfate, 18°C; 1.6 Å
T2 construct: luminal domain of human lamina-associated polypeptide 1 (LAP1), aa356-583; Tag removed with human rhinovirus 3C protease; disulfide bond C424-C582 seen in the structure; also called LAP1(356-583); Lamina-associated polypeptide 1; not shown: 6xHis-7xArg, N-terminal, cleaved
T2 sequence (Q5JTV8 356-583): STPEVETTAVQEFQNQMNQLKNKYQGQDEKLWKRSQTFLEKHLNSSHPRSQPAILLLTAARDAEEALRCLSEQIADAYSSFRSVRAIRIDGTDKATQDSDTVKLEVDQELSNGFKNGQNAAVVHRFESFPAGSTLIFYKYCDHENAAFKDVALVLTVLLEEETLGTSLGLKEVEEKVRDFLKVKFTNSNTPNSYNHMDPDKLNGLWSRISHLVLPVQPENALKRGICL

[3] = molecular target: T3, luminal domain of human LAP1 (aa356-583), untagged, co-expressed with TorsinA (human, UniProt Q5JTV8); experiment: in vitro precipitation assay (competition); 100 pmol preformed TorsinA(E171Q):LAP1 complex with 200 pmol VHH, 4°C, 10 mM HEPES/NaOH pH 8.0, 150 mM NaCl, 10 mM MgCl2, 0.25 mM ATP; soluble and insoluble protein separated by centrifugation, SDS-PAGE
T3 construct: luminal domain of human lamina-associated polypeptide 1 (LAP1), aa356-583, untagged; From a second, kanamycin resistant modified pETDuet-1 vector; also called LAP1(356-583)
T3 sequence (Q5JTV8 356-583): as above

Binder | stoichiometry N [1] | binding result [2] | binding result [3]
luminal domain of human LAP1 (aa356-583), untagged, co-expressed with TorsinA (domain or fragment, luminal domain of human lamina-associated polypeptide 1 (LAP1), aa356-583, untagged; From a second, kanamycin resistant modified pETDuet-1 vector; also called LAP1(356-583)) not shown | 1 | – | –
luminal domain of human LULL1 (aa233-470), untagged, co-expressed with TorsinA (domain or fragment, luminal domain of human LULL1, aa233-470, untagged; The results once print LULL1(322-570); the methods print aa233-470 throughout; also called LULL1(233-470); Luminal domain-Like LAP1) not shown | 1 | – | –
VHH-BS1 (VHH, alpaca VHH selected by phage display against LAP1; Raised by immunising an alpaca with recombinant LAP1; expressed from pET-28b(+); also called camelid single domain (VHH) antibody fragment against LAP1) VHH: QVQLVESGGGLVQAGGSLRLSCAASGRTLSSYAVGWFRQAPGLEREFVATISRSGGSTHYADSVKGRFTISRDNAKNTVYLQMNSLKPEDTAVYYCAATFTPDGSWYYTRGSSYDYWGQGTQVTVSS | – | binds | binds
